The target of the experiment is T1, FcγRIa extracellular domain with C-terminal His tag (human, UniProt P12314 16-292).
T1 construct: extracellular domain; Expressed in FreeStyle293 cells; analyte in Biacore; also called FcgRI; FcgRIa
As to the kind of experiment: SPR Biacore, antibody captured, FcγRIa analyte; vs GpH7-A5/GpH7-B3/GpL16-k0 = 100.

T1 sequence (P12314 16-292): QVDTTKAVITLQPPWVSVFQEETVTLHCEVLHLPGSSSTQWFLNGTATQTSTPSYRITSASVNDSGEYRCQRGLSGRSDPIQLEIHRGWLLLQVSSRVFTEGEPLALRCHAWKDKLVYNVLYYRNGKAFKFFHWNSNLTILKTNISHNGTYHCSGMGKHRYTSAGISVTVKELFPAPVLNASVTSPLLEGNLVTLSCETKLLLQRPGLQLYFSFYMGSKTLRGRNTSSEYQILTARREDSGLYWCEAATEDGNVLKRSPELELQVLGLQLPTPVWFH

B1: GpH7-A5/GpH7-B3 variant E333_13S/GpL16-k0 (He Ab) (antibody, human IgG1, kappa)
heavy 1: not shown
heavy 2: not shown
light: DIVMTQSPLSLPVTPGEPASISCQASESLVHSNRNTYLHWYLQKPGQSPQLLIYKVSNRFSGVPDRFSGSGSGTDFTLKISRVEAEDVGVYYCSQNTHVPPTFGQGTKVEIERTVAAPSVFIFPPSDEQLKSGTASVVCLLNNFYPREAKVQWKVDNALQSGNSQESVTEQDSKDSTYSLSSTLTLSKADYEKHKVYACEVTHQGLSSPVTKSFNRGEC
notes: He Ab: alteration only in the GpH7-B3 chain
Turning to B1, the He/Con_1a was 103 relative (control = 100).

B2: GpH7-A5/GpH7-B3 variant Q295_02A/GpL16-k0 (He Ab) (antibody, human IgG1, kappa)
heavy 1: not shown
heavy 2: not shown
light: DIVMTQSPLSLPVTPGEPASISCQASESLVHSNRNTYLHWYLQKPGQSPQLLIYKVSNRFSGVPDRFSGSGSGTDFTLKISRVEAEDVGVYYCSQNTHVPPTFGQGTKVEIERTVAAPSVFIFPPSDEQLKSGTASVVCLLNNFYPREAKVQWKVDNALQSGNSQESVTEQDSKDSTYSLSSTLTLSKADYEKHKVYACEVTHQGLSSPVTKSFNRGEC
notes: as for B1
For the molecule B2, the He/Con_1a was 104 relative (control = 100).

B3: GpH7-A5/GpH7-B3 variant K326_15Y/GpL16-k0 (He Ab) (antibody, human IgG1, kappa)
heavy 1: not shown
heavy 2: not shown
light: DIVMTQSPLSLPVTPGEPASISCQASESLVHSNRNTYLHWYLQKPGQSPQLLIYKVSNRFSGVPDRFSGSGSGTDFTLKISRVEAEDVGVYYCSQNTHVPPTFGQGTKVEIERTVAAPSVFIFPPSDEQLKSGTASVVCLLNNFYPREAKVQWKVDNALQSGNSQESVTEQDSKDSTYSLSSTLTLSKADYEKHKVYACEVTHQGLSSPVTKSFNRGEC
notes: as for B1
As for B3, the He/Con_1a was 106 relative (control = 100).

B4: GpH7-A5/GpH7-B3 variant I336_10E/GpL16-k0 (He Ab) (antibody, human IgG1, kappa)
heavy 1: not shown
heavy 2: not shown
light: DIVMTQSPLSLPVTPGEPASISCQASESLVHSNRNTYLHWYLQKPGQSPQLLIYKVSNRFSGVPDRFSGSGSGTDFTLKISRVEAEDVGVYYCSQNTHVPPTFGQGTKVEIERTVAAPSVFIFPPSDEQLKSGTASVVCLLNNFYPREAKVQWKVDNALQSGNSQESVTEQDSKDSTYSLSSTLTLSKADYEKHKVYACEVTHQGLSSPVTKSFNRGEC
notes: as for B1
Turning to B4, the He/Con_1a was 108 relative (control = 100).

B5: GpH7-A5/GpH7-B3 variant I336_02A/GpL16-k0 (He Ab) (antibody, human IgG1, kappa)
heavy 1: not shown
heavy 2: not shown
light: DIVMTQSPLSLPVTPGEPASISCQASESLVHSNRNTYLHWYLQKPGQSPQLLIYKVSNRFSGVPDRFSGSGSGTDFTLKISRVEAEDVGVYYCSQNTHVPPTFGQGTKVEIERTVAAPSVFIFPPSDEQLKSGTASVVCLLNNFYPREAKVQWKVDNALQSGNSQESVTEQDSKDSTYSLSSTLTLSKADYEKHKVYACEVTHQGLSSPVTKSFNRGEC
notes: as for B1
For the molecule B5, the He/Con_1a was 106 relative (control = 100).

B6: GpH7-A5/GpH7-B3 variant P271_03V/GpL16-k0 (He Ab) (antibody, human IgG1, kappa)
heavy 1: not shown
heavy 2: not shown
light: DIVMTQSPLSLPVTPGEPASISCQASESLVHSNRNTYLHWYLQKPGQSPQLLIYKVSNRFSGVPDRFSGSGSGTDFTLKISRVEAEDVGVYYCSQNTHVPPTFGQGTKVEIERTVAAPSVFIFPPSDEQLKSGTASVVCLLNNFYPREAKVQWKVDNALQSGNSQESVTEQDSKDSTYSLSSTLTLSKADYEKHKVYACEVTHQGLSSPVTKSFNRGEC
notes: as for B1
In the case of B6, the He/Con_1a is 102 relative (control = 100).

B7: GpH7-A5/GpH7-B3 variant K334_10E/GpL16-k0 (He Ab) (antibody, human IgG1, kappa)
heavy 1: not shown
heavy 2: not shown
light: DIVMTQSPLSLPVTPGEPASISCQASESLVHSNRNTYLHWYLQKPGQSPQLLIYKVSNRFSGVPDRFSGSGSGTDFTLKISRVEAEDVGVYYCSQNTHVPPTFGQGTKVEIERTVAAPSVFIFPPSDEQLKSGTASVVCLLNNFYPREAKVQWKVDNALQSGNSQESVTEQDSKDSTYSLSSTLTLSKADYEKHKVYACEVTHQGLSSPVTKSFNRGEC
notes: as for B1
Consider B7, for which the He/Con_1a was 110 relative (control = 100).

B8: GpH7-A5/GpH7-B3 variant P271_12R/GpL16-k0 (He Ab) (antibody, human IgG1, kappa)
heavy 1: not shown
heavy 2: not shown
light: DIVMTQSPLSLPVTPGEPASISCQASESLVHSNRNTYLHWYLQKPGQSPQLLIYKVSNRFSGVPDRFSGSGSGTDFTLKISRVEAEDVGVYYCSQNTHVPPTFGQGTKVEIERTVAAPSVFIFPPSDEQLKSGTASVVCLLNNFYPREAKVQWKVDNALQSGNSQESVTEQDSKDSTYSLSSTLTLSKADYEKHKVYACEVTHQGLSSPVTKSFNRGEC
notes: as for B1
Turning to B8, the He/Con_1a was 102 relative (control = 100).

B9: GpH7-A5/GpH7-B3 variant K326_16H/GpL16-k0 (He Ab) (antibody, human IgG1, kappa)
heavy 1: not shown
heavy 2: not shown
light: DIVMTQSPLSLPVTPGEPASISCQASESLVHSNRNTYLHWYLQKPGQSPQLLIYKVSNRFSGVPDRFSGSGSGTDFTLKISRVEAEDVGVYYCSQNTHVPPTFGQGTKVEIERTVAAPSVFIFPPSDEQLKSGTASVVCLLNNFYPREAKVQWKVDNALQSGNSQESVTEQDSKDSTYSLSSTLTLSKADYEKHKVYACEVTHQGLSSPVTKSFNRGEC
notes: as for B1
Take B9: the He/Con_1a was 103 relative (control = 100).

B10: GpH7-A5/GpH7-B3 variant G236_20W/GpL16-k0 (He Ab) (antibody, human IgG1, kappa)
heavy 1: not shown
heavy 2: not shown
light: DIVMTQSPLSLPVTPGEPASISCQASESLVHSNRNTYLHWYLQKPGQSPQLLIYKVSNRFSGVPDRFSGSGSGTDFTLKISRVEAEDVGVYYCSQNTHVPPTFGQGTKVEIERTVAAPSVFIFPPSDEQLKSGTASVVCLLNNFYPREAKVQWKVDNALQSGNSQESVTEQDSKDSTYSLSSTLTLSKADYEKHKVYACEVTHQGLSSPVTKSFNRGEC
notes: He Ab: alteration only in the GpH7-B3 chain; also called GpH7-A5/GpH7-B3-03-20W/GpL16-k0
Turning to B10, the He/Con_1a was 105 relative (control = 100).

B11: GpH7-A5/GpH7-B3 variant I336_18N/GpL16-k0 (He Ab) (antibody, human IgG1, kappa)
heavy 1: not shown
heavy 2: not shown
light: DIVMTQSPLSLPVTPGEPASISCQASESLVHSNRNTYLHWYLQKPGQSPQLLIYKVSNRFSGVPDRFSGSGSGTDFTLKISRVEAEDVGVYYCSQNTHVPPTFGQGTKVEIERTVAAPSVFIFPPSDEQLKSGTASVVCLLNNFYPREAKVQWKVDNALQSGNSQESVTEQDSKDSTYSLSSTLTLSKADYEKHKVYACEVTHQGLSSPVTKSFNRGEC
notes: as for B1
B11: the He/Con_1a is 108 relative (control = 100).

Values taken from patent publication US20180155451A1 (published 2018).
